# Reference: publication PMC2747730 (Biochemistry, 2008)
# B1: Sml1 (suppressor of Mec1 lethality), full length wild type (natural protein, S. cerevisiae, UniProt Q04964 1-104, looked up)
# chain: MQNSQDYFYAQNRCQQQQAPSTLRTVTMAEFRRVPLPPMAEVPMLSTQNSMGSSASASASSLEMWEKDLEERLNSIDHDMNNNKFGSGELKSMFNQGKVEEMDF
# Biological target: the molecule itself
# Assay: PFG-NMR translational diffusion
protein,measurement,value
B1,Kd,93 ± 25 µM
